What was measured:
[1] = tested on: HeLa cells expressing the HaloEnzyme; format: cell-based; settings: 1 μM HT-labeled peptide, 4 hours
Method: HeLa cells expressing the HaloEnzyme (a modified bacterial haloalkane dehalogenase, further modified to target to the cytosol-facing side of the outer mitochondrial membrane) were grown in 24 well dishes until ˜60% confluent. […] After incubation, cells were rinsed and incubated with Opti-MEM for 30 minutes, and were then incubated with 5 μM HT-TAMRA ligand (Promega G8251) for 30 minutes. An additional control with no HT-TAMRA was tested. After this incubation, cells were rinsed with PBS and then imaged on a fluorescent microscope in FITC/green (all cells) and TRITC/red (HT-TAMRA accumulation) channels.
FIG. 28 illustrates cell-by-cell quantitation of average fluorescence in the red channel of cells in a CAPA.

[2] = SYPRO Orange thermal shift (melting) assay; format: physicochemical; settings: heating from 20° C. to 95° C.
Method: Thermal Shift Assay. Protein melting temperature (Tm) determination can be performed by monitoring protein unfolding using SYPRO Orange dye (Molecular Probes). In brief, 0.1 mg/mL protein sample in 20 μL total volume PBS buffer can be mixed with 2 μL of 10×SYPRO Orange dye. Dye intercalation into the hydrophobic protein core following protein unfolding was assayed using the C1000 Touch Thermal Cycler with CFX96 Deep Well Real-Time System (BioRad). Samples were heated from 20° C. to 95° C. with stepwise increments of 0.5° C. per minute and a 5 see hold step for every point, followed by fluorescence reading. Tm were calculated by analyzing the derivatives of Relative florescence Units (RFU).
Protein secondary structures were assessed using Circular Dichroism (CD). CD spectra were measured with a Jasco J-720W spectropolarimeter using a 1.0 mm path length cell. Protein samples in 10 mM phosphate buffer (pH=7.4) were at 25-30 μM protein concentration. Samples were analyzed at wavelength ranges of 260-190 nM. Data were expressed in terms of relative ellipticity; (mdeg). […] Samples were heated from 20° C. to 95° C. with stepwise increments of 0.5° C. per minute and a 5 sec hold step for every point, followed by fluorescence reading. Tm was calculated by analyzing the derivatives of Relative florescence Units (RFU). […]

biotinylated TEAD = biological target: T1, biotinylated TEAD (Homo sapiens, UniProt P28347); assay: Surface plasmon resonance (SPR) binding of soluble peptides to captured biotinylated TEAD; settings: biotinylated TEAD immobilized on an SPR chip, read-out: dissociation constant (KD)
T1 construct: GST; made in house; host or cells: Hi5 insect cells (baculovirus, BacMagic, pIEX-BAC3)
T1 sequence (P28347 209-426): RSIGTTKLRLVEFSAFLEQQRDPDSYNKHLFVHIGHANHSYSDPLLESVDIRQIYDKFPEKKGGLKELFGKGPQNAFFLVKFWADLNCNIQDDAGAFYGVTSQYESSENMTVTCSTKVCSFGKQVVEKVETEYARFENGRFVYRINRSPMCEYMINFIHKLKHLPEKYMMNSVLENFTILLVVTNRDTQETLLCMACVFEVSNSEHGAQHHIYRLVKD

B1: GSGDCLPHLKRCKADNDCCGKKCKRRGTNAEKRCREPKSSDKTHTPDEYIERAKECCKKQDIQCCLRIFDESKDPNVMLICLFCW (peptide)
chain: GSGDCLPHLKRCKADNDCCGKKCKRRGTNAEKRCREPKSSDKTHTPDEYIERAKECCKKQDIQCCLRIFDESKDPNVMLICLFCW
In the case of B1, the cell penetration [1] is reported as “high cell penetration”.

B2: Human siderocalin: Human siderocalin (HuScn), control protein in SYPRO Orange melting assay (protein, UniProt P80188 21-198, looked up)
Neutrophil …: QDSTSDLIPAPPLSKVPLQQNFQDNQFQGKWYVVGLAGNAILREDKDPQKMYATIYELKEDKSYNVTSVLFRKKKCDYWIRTFVPGCQPGEFTLGNIKSYPGLTSYLVRVVSTNYNQHAMVFFKKVSQNREYFKITLYGRTKELTSELKENFIRFSKSLGLPENHIVFPVPIDQCIDG
For B2, the melting temperature [2] was 79 °C.

B3: Siderocalin-fused YAP: YAP (50-171) produced as a soluble siderocalin fusion (protein)
chain: QDSTSDLIPAPPLSKVPLQQNFQDNQFQGKWYVVGLAGNAILREDKDPQKMYATIYELKEDKSYNVTSVLFRKKKCDYWIRTFVPGCQPGEFTLGNIKSYPGLTSYLVRVVSTNYNQHAMVFFKKVSQNREYFKITLYGRTKELTSELKENFIRFSKSLGLPENHIVFPVPIDQCIDGAGHQIVHVRGDSETDLEALFNAVMNPKTANVPQTVPMRLRKLPDSFFKPPEPKSHSRQASTDAGTAGALTPQHVRAHSSPASLQLGAVSPGTLTPTGVVSGPAATPTAQHLRQSSFEIPDDV
modifications: left off: small tags and cut ends
For B3, the Kd (biotinylated TEAD) was 570 nM.

Source: patent US11548923B2, “Peptide compositions and methods of use thereof for disrupting TEAD interactions” (Fred Hutchinson Cancer Center, priority 2017, dated 2023)
